No end group written: not given here.
Experiments:
[1] = Serum half-life after intravenous injection into mice; assay type: in vivo; conditions: for serum half-life: mice, intravenous injection
Protocol: uPA1-48 was produced in yeast, purified and concentrated into PBS. When produced in yeast, uPA1-48 lacks a fucosylation which is present when the protein is expressed in mammalian cells. The purified protein was injected intravenously into mice. Blood samples were collected at various time points, and the amount of uPA1-48 present in each sample was determined.
Pharmaceutical preparations comprising the conjugates of uPA1-48 and PEG were injected intravenously into mice. Blood samples were collected at various time points, and the amount of conjugate present in the blood was determined for each time point.

[2] = relative to native protein; cited from earlier work
uPAR = uPAR (Homo sapiens, UniProt Q03405); test: uPAR receptor binding activity (method of Goodson et al.); conditions: for IC50: uPAR receptor binding
Sequence of uPAR (Q03405 23-335): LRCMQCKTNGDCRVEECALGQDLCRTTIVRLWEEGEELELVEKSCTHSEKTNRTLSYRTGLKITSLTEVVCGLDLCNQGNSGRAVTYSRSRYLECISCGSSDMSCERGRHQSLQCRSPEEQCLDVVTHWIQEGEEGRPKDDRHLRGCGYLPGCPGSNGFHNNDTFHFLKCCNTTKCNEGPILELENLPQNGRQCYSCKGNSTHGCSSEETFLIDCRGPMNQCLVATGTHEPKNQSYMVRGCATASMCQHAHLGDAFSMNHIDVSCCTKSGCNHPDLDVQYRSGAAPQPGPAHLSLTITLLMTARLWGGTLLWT

[3] = Pharmacokinetics after single IV bolus or SC dose in cynomologous monkeys (active protein measured by receptor binding activity); assay type: in vivo; conditions: for t1/2: functional half-life
Protocol: As above, blood samples were collected at various time points, and the amount of conjugate present in the blood was determined for each time point. The method measures the receptor binding activity instead of just the total protein present; thus the amount of protein measured as a function of time represents the active protein, and the measured half-life represents functional half-life. The data is shown in Table 1, and a graph illustrating plasma disposition of PEG hu1-48 over time is included in FIG. 1.

[4] = tested on: MDA MB231 cells (human breast carcinoma); test: Breast carcinoma MDA MB231 subcutaneous tumor growth in NOD/Ltz mice; assay type: in vivo; conditions: for tumor growth reduced: vs vehicle control at 9 weeks, p=0.05
Protocol: Thirty NOD/Ltz mice were injected subcutaneously with 2×10^6 MDA MB231 cells (human breast carcinoma) on day 0. The mice were divided into three groups of 10 mice each, and the treatment of the three groups of mice began on day 1. Twice every week, group 1 was subcutaneously injected with 30 μg PEG hu1-48 (20 kD PEG), group 2 was subcutaneously injected with 300 μg PEG hu1-48 (20 kD PEG), and group 3 was subcutaneously injected with the vehicle (PBS). Treatment was continued for 9 weeks. The primary tumor volume (mm^3) was measured three times per week for 12 weeks, and the experiment was terminated when mean tumor volume in vehicle control group exceeded 2000 mm^3.

[5] = tested on: PC-3 mm2 cells (human prostate carcinoma); test: Human prostate carcinoma PC-3 mm2 orthotopic tumor growth in nude mice; assay type: in vivo; conditions: 300 μg SC twice per week for 3 weeks, vs vehicle control
Protocol: The prostates of 18 nude mice were injected with 1×10^5 PC-3 mm2 cells (human prostate carcinoma) on day 0. The mice were divided into two groups of nine mice each, and treatment was initiated on day 3 and continued for 3 weeks. Twice per week, the mice of group 1 received 300 μg PEG hu1-48 (20 kD PEG) by subcutaneous administration, and the mice of group 2 received vehicle only by subcutaneous administration. Three weeks after the implantation of the human prostate carcinoma cells, the prostates of the mice were excised and weighed to determine effects of treatment on the primary tumor growth.

[6] = tested on: KM12 L4A cells (human colorectal adenocarcinoma); test: Colon cancer tumor growth and liver metastases, intrasplenic KM12 L4A in nude mice; assay type: in vivo; conditions: 250 μg BID SC five times per week, 4 weeks
Protocol: Twenty 10 week old Nude male mice were injected intrasplenically with 1×10^6 KM12 L4A cells (human colorectal adenocarcinoma) on day 0. The mice were divided into two groups, and treatment was initiated on day 1 post-implantation and continued for 4 weeks. Group 1, consisting of 10 mice, were subcutaneously injected five times per week with PEG hu1-48 (20 kD PEG) and 250 μg BID while group 2 mice acted as the control and were injected with vehicle only. The animals were sacrificed all 5 weeks, and the spleens of the animals from each group were weighed to determine primary tumor burden (FIG. 4A). The livers were weighed to determine metastatic tumor burden, and were scored by histological examination for incidence of metastases (FIG. 4B). […] For the purposes of comparison, the average splenic weight for mice in this age group is about 240 mg.

[7] = tested on: KM12 L4A cells (human colorectal carcinoma cancer with high metastatic potential); test: Liver metastases in post-resection colorectal carcinoma model (KM12 L4A, spleen removed); assay type: in vivo, mice; conditions: 1000 μg SC twice per week, vs vehicle
Protocol: Thirty male Nu/Nu mice were injected intrasplenically with 0.5×10^6 KM12 L4A cells (human colorectal carcinoma cancer with high metastatic potential), and the spleens of all the mice were removed 3 days after implantation of the KM12 L4A cells. The mice were divided into two treatment groups, and treatment was began 6 days after implantation. The first group of 15 mice received subcutaneous administrations of 1000 μg PEG hu1-48(20 kD PEG) twice per week, and the second group of 15 mice received saline vehicle only and served as the control group. The experiment was terminated 27 days after implantation of the KM12 L4A cells, and the weight of the livers were determined and histologically scored for metastatic foci.

Q: With “uPA1-48/PEG50 kD dimeric conjugate: a uPA1-48 molecule conjugated at each end of PEG50 kD (SNELHQVPSNCDCLNGGTCVSNKYFSNIHWCNCPKKFGGQHCEIDKSK; cysteine pairing not given here; also: dimer: one uPA1-48 conjugated at each end of PEG 50 kDa, site not given here; UniProt P00749 21-68, looked up, fragment)” as the substance, how does the serum half-life [1] read?
A: 288 min

Q: With “uPA1-48/PEG5 kD conjugate: uPA1-48 N-terminal aldehyde coupled to PEG hydrazide of nominal average molecular weight 5 kD ({PEG 5 kDa hydrazone}-SNELHQVPSNCDCLNGGTCVSNKYFSNIHWCNCPKKFGGQHCEIDKSK; cysteine pairing not given here; UniProt P00749 21-68, looked up, fragment)” as the substance, how does the serum half-life [1] read?
A: 44 min

Q: For “PEG20 kD to IL-1ra: literature conjugate of PEG20 kD with IL-1ra (Gaertner and Offord 1996)”, which “change in half-life on conjugation to PEG20 kD” value [2] is on record?
A: almost seven-fold increase

Q: With “IL-8/PEG20 kD conjugate: literature conjugate of IL-8 with PEG20 kD (Gaertner and Offord 1996)” as the substance, how does the “change in half-life on conjugation to PEG20 kD” value [2] read?
A: no change

Q: For “uPA1-48/PEG25 kD conjugate: uPA1-48 N-terminal aldehyde coupled to PEG hydrazide of nominal average molecular weight 25 kD ({PEG 25 kDa hydrazone}-SNELHQVPSNCDCLNGGTCVSNKYFSNIHWCNCPKKFGGQHCEIDKSK; cysteine pairing not given here; UniProt P00749 21-68, looked up, fragment)”, which serum half-life [1] is on record?
A: 277 min

Q: Which serum half-life [1] does the source give for “uPA1-48: catalytically inactive protein comprising the first 48 amino acids of human uPA (EGF-like domain), produced in yeast (SNELHQVPSNCDCLNGGTCVSNKYFSNIHWCNCPKKFGGQHCEIDKSK; UniProt P00749 21-68, looked up, fragment)” here?
A: approximately 10 minutes

Q: And the IC50 (uPAR)?
A: 0.25 nM

Q: Which serum half-life [1] does the source give for “uPA1-48 /PEG3.4 kD conjugate: uPA1-48 N-terminal aldehyde coupled to PEG hydrazide of nominal average molecular weight 3.4 kD ({PEG 3.4 kDa hydrazone}-SNELHQVPSNCDCLNGGTCVSNKYFSNIHWCNCPKKFGGQHCEIDKSK; cysteine pairing not given here; UniProt P00749 21-68, looked up, fragment)” here?
A: 12 min

Q: For “uPA1-48/PEG20 kD conjugate: uPA1-48 N-terminal aldehyde coupled to PEG hydrazide of nominal average molecular weight 20 kD ({PEG 20 kDa hydrazone}-SNELHQVPSNCDCLNGGTCVSNKYFSNIHWCNCPKKFGGQHCEIDKSK; cysteine pairing not given here; UniProt P00749 21-68, looked up, fragment)”, which serum half-life [1] is on record?
A: 130 min

Q: What about the “increase in serum half-life” value ([1]; relative to unmodified uPA1-48, mice) of the same substance?
A: 13 fold

Q: And the t1/2 ([3]; monkey F67-344F, IV, 10 mg/kg)?
A: 6.9 h

Q: And the t1/2 ([3]; monkey F67-344F, SC, 10 mg/kg)?
A: 23 h

Q: What about the t1/2 ([3]; monkey F7238F, IV, 10 mg/kg) of the same substance?
A: 7.6 h

Q: What about the t1/2 ([3]; monkey F7238F, SC, 10 mg/kg) of the same substance?
A: 26 h

Q: And the t1/2 ([3]; monkey F7281F, IV, 8.8 mg/kg)?
A: 6.4 h

Q: And the t1/2 ([3]; monkey F7281F, SC, 10 mg/kg)?
A: 14 h

Q: What about the AUC ([3]; monkey F67-344F, IV, 10 mg/kg) of the same substance?
A: 3297918 nM·min

Q: And the CL ([3]; monkey F67-344F, IV, 10 mg/kg)?
A: 0.6 mL/min/kg

Q: And the Cmax ([3]; monkey F67-344F, IV, 10 mg/kg)?
A: 19.143 µM

Q: And the F ([3]; monkey F67-344F, IV, 10 mg/kg)?
A: 100%

Q: What about the MRT ([3]; monkey F67-344F, IV, 10 mg/kg) of the same substance?
A: 7.4 h

Q: And the Tmax ([3]; monkey F67-344F, IV, 10 mg/kg)?
A: 0 h

Q: And the Vss ([3]; monkey F67-344F, IV, 10 mg/kg)?
A: 0.252 L/kg

Q: What about the AUC ([3]; monkey F67-344F, SC, 10 mg/kg) of the same substance?
A: 3803604 nM·min

Q: And the Cmax ([3]; monkey F67-344F, SC, 10 mg/kg)?
A: 2.596 µM

Q: What about the F ([3]; monkey F67-344F, SC, 10 mg/kg) of the same substance?
A: 115%

Q: What about the MRT ([3]; monkey F67-344F, SC, 10 mg/kg) of the same substance?
A: 31 h

Q: And the Tmax ([3]; monkey F67-344F, SC, 10 mg/kg)?
A: 8 h

Q: And the AUC ([3]; monkey F7238F, IV, 10 mg/kg)?
A: 3002085 nM·min

Q: And the CL ([3]; monkey F7238F, IV, 10 mg/kg)?
A: 0.6 mL/min/kg

Q: And the Cmax ([3]; monkey F7238F, IV, 10 mg/kg)?
A: 30.564 µM

Q: What about the F ([3]; monkey F7238F, IV, 10 mg/kg) of the same substance?
A: 100%

Q: What about the MRT ([3]; monkey F7238F, IV, 10 mg/kg) of the same substance?
A: 6.6 h

Q: And the Tmax ([3]; monkey F7238F, IV, 10 mg/kg)?
A: 0 h

Q: And the Vss ([3]; monkey F7238F, IV, 10 mg/kg)?
A: 0.249 L/kg

Q: What about the AUC ([3]; monkey F7238F, SC, 10 mg/kg) of the same substance?
A: 3057502 nM·min

Q: And the Cmax ([3]; monkey F7238F, SC, 10 mg/kg)?
A: 2.155 µM

Q: What about the F ([3]; monkey F7238F, SC, 10 mg/kg) of the same substance?
A: 101%

Q: What about the MRT ([3]; monkey F7238F, SC, 10 mg/kg) of the same substance?
A: 28 h

Q: And the Tmax ([3]; monkey F7238F, SC, 10 mg/kg)?
A: 4 h

Q: What about the AUC ([3]; monkey F7281F, IV, 8.8 mg/kg) of the same substance?
A: 1987996 nM·min

Q: And the CL ([3]; monkey F7281F, IV, 8.8 mg/kg)?
A: 0.8 mL/min/kg

Q: What about the Cmax ([3]; monkey F7281F, IV, 8.8 mg/kg) of the same substance?
A: 19.199 µM

Q: And the F ([3]; monkey F7281F, IV, 8.8 mg/kg)?
A: 100%

Q: What about the MRT ([3]; monkey F7281F, IV, 8.8 mg/kg) of the same substance?
A: 5.1 h

Q: What about the Tmax ([3]; monkey F7281F, IV, 8.8 mg/kg) of the same substance?
A: 0 h

Q: And the Vss ([3]; monkey F7281F, IV, 8.8 mg/kg)?
A: 0.255 L/kg

Q: And the AUC ([3]; monkey F7281F, SC, 10 mg/kg)?
A: 2337888 nM·min

Q: What about the Cmax ([3]; monkey F7281F, SC, 10 mg/kg) of the same substance?
A: 1.126 µM

Q: And the F ([3]; monkey F7281F, SC, 10 mg/kg)?
A: 103%

Q: And the MRT ([3]; monkey F7281F, SC, 10 mg/kg)?
A: 31 h

Q: What about the Tmax ([3]; monkey F7281F, SC, 10 mg/kg) of the same substance?
A: 8 h

Q: What about the “decrease in biological activity” value (uPAR; relative to uPA1-48, uPAR binding) of the same substance?
A: four-fold

Q: And the IC50 (uPAR)?
A: 1 nM

Q: And the tumor growth reduced ([4]; 30 μg SC twice every week)?
A: 77%

Q: What about the tumor growth reduced ([4]; 300 μg SC twice every week) of the same substance?
A: 98%

Q: What about the “effect after treatment was stopped (day 63)” value ([4]; 300 μg group observed additional 3 weeks, tumors evident by day 84) of the same substance?
A: cytostatic effect

Q: And the “reduction in primary tumor growth (prostate weight)” value [5]?
A: ~57%

Q: And the “incidence of liver metastases” value ([6]; 6 control mice had metastases, p<0.005)?
A: no observed metastases

Q: What about the “mice with visible tumors in the spleen” value ([6]; of 10 mice) of the same substance?
A: 7 mice

Q: What about the average spleen weight ([6]; ±113, control 641 mg, normal about 240 mg) of the same substance?
A: 269 mg

Q: And the “overall liver tumor burden” value ([7]; day 27)?
A: trend toward a reduction

Q: What about the “metastases to the liver” value ([7]; p value <0.05, day 27) of the same substance?
A: significantly reduced metastases to the liver

— patent publication US7022673B2, “Method for increasing the serum half-life of a biologically active molecule” (Chiron Corporation, priority 1998, dated 2006)
